Measured values reported in the supplement of paper PMC10567573.
± gives the standard deviation.

Test: protein stability index of a GFP-peptide fusion (GPS, HEK-293T) (PSI 1-6); higher = more stable
Conditions: c terminus: a fixed tail appended
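Also: 24-mer peptide tiles fused after GFP, lentivirally expressed, FACS-sorted into six equal bins by GFP/DsRed ratio, decoded by Illumina sequencing, PSI is the read-weighted mean bin number.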

Row | Sequence | protein stability index (treatment: DMSO) | protein stability index (treatment: MLN4924 1 uM, 8 h)
1 | NTPFQLSIAPPEAEGVVLSDSPDA [PPTC7] | 5.41 ± 0.15 | 5.37 ± 0.18
2 | PHPDLPAEEKEQLLHNDEYQETMV [USP39] | 5.35 ± 0.24 | 5.55 ± 0.21
3 | GPVPGTPGLPGSTGNPKSEEPEVP [SPNS1] | 5.55 ± 0.2 | 5.3 ± 0.34
4 | DIHGLRKVIDDTNITRLQLETEIE [KRT18] | 4.28 ± 0.28 | 4.16 ± 0.46
5 | IDFIGQVHKTKEQFGQDGPISVHC [PTPRD] | 2.5 ± 0.26 | 2.81 ± 0.22
6 | LRKHRELCDVVLVVGAKKIYAHRV [KLHL20] | 2.67 ± 0.5 | 2.3 ± 0.43
7 | NINDRIKELGTLIPKSSDPEMRWN [TFE3] | 3.58 ± 0.33 | 3.77 ± 0.17
8 | AFGAPIGGTLFSLEEGSSFWNQGL [CLCN6] | 2.47 ± 0.27 | 2.47 ± 0.35
9 | HVTVVILFFVPCIFLYARPNSTFP [OR4A15] | 2.83 ± 0.9 | 2.77 ± 0.51
10 | SVWVLRDFPEDGLKIFTEDLPEVE [VPS39] | 3.55 ± 0.34 | 3.59 ± 0.33
11 | FEMKKGQCKDALEIYKRFLTRMTR [SNAP91] | 2.46 ± 0.7 | 2.56 ± 0.43
12 | RKLSFSHSDHSSEMSLPEVQKDKY [SPATS1] | 4.85 ± 0.15 | 4.93 ± 0.2
13 | KRKMHLVFEYCDHTLLNELERNPN [CDKL4] | 2.26 ± 0.46 | 2.51 ± 0.51
14 | VYLLGNPVVWWLNLLSIALYLLSG [POMT2] | 3.31 ± 0.95 | 2.96 ± 0.56
15 | RGIDIIKWMERYLRDKTVMIIVAI [TRAF3IP2] | 2.25 ± 0.31 | 2.33 ± 0.42
16 | GAFDSFLLRFGVPSPSTLEPHPRP [TNXB] | 2.99 ± 0.42 | 2.97 ± 0.35
17 | QLYMEQFTKANFWYQPSFHGVDLS [CARM1] | 2.42 ± 0.71 | 2.48 ± 0.31
18 | LSCLGQQQQEPPLAMGTVSLGQLP [PLAGL1] | 3.75 ± 0.32 | 3.59 ± 0.5
19 | GNMANLSLHDHDGSSGASDQDTLA [DVL3] | 5.42 ± 0.12 | 5.3 ± 0.41
20 | ICKEVQAEQEPTRKLFEVESVTHH [SPAG8] | 4.47 ± 0.12 | 4.77 ± 0.07
21 | LKDEEAKVLQLTVRCEALTGELET [CCDC89] | 3.86 ± 0.15 | 3.71 ± 0.25
22 | ASLSNQECQLYPRRSQQQQVPVVD [SNURF] | 4.57 ± 0.14 | 4.46 ± 0.24
23 | LWDRAYVRLKPALQRLDFSVRGYM [RETREG3] | 2.5 ± 0.43 | 2.69 ± 0.65

Row | Sequence | protein stability index (treatment: DMSO) | protein stability index (treatment: MLN4924 1 uM, 8 h)
24 | TSEKLGEWNEKVTQSDLYKKTQET [TPD52L2] | 5.13 ± 0.28 | 5.1 ± 0.063
25 | IKEEENSEEELAAATTSKEQEPIG [MYBL2] | 5.7 ± 0.31 | 5.72 ± 0.21
26 | QVNGHPDPFDEIILFSLPPALDWD [PTPN9] | 2.27 ± 0.23 | 2.31 ± 0.4
27 | ESIRRAQVSQVKGAARLALLQGAG [FCHSD1] | 3.45 ± 0.12 | 3.36 ± 0.52
28 | IPANVSNCNWFCEGSFNGSEKETM [KRT33B] | 4.19 ± 0.15 | 4.07 ± 0.3
29 | RKSSKLIMELTGGGQESSGLNLGK [MYOZ1] | 3.72 ± 0.082 | 3.98 ± 0.26
30 | SPNPFPEISRGEYLYTYDSQITDS [ZNF8] | 4.08 ± 0.17 | 4.35 ± 0.38
31 | TSAAYRYYIDDVFHALVREIRRKE [RIT1] | 2.16 ± 0.36 | 2.35 ± 0.26
32 | FWQTQYNNMNAVNLFFAWIKIFKY [PKD2L1] | 2.38 ± 0.38 | 2.19 ± 0.52
33 | LTDAYGPPSNFLEIDIFNPQTVGV [SNX12] | 2.87 ± 0.39 | 3.19 ± 0.39
34 | MDIESLSVFTEPNRHFYREMQSFS [FBXO33] | 2.39 ± 0.33 | 2.3 ± 0.24
35 | RPIIASISSGVVSIWAQNQVENWS [RBBP5] | 2.22 ± 0.34 | 2.26 ± 0.42
36 | LVEDMVSQEEAQGLPSSELDAVEN [ZNF24] | 5.5 ± 0.48 | 5.43 ± 0.15
37 | FSLMVTFPDVPLGIFLFCVCVIAI [TMEM175] | 3.37 ± 0.5 | 3.14 ± 0.31
38 | PTVPSAATSQPTPSQHSAHTSSQP [CCDC6] | 5.21 ± 0.13 | 5.22 ± 0.27
39 | HVLEGLFRTDPEAKVKLVFVEDQA [ZSWIM9] | 2.51 ± 0.19 | 2.74 ± 0.24
40 | KKKKTKKIKEKYIDQEELNKTKPI [HSP90AB1] | 4.28 ± 0.26 | 4.53 ± 0.31
41 | RKPPVFDENEDVNFDHFEILRAIG [STK32A] | 2.76 ± 0.36 | 2.86 ± 0.31
42 | RREVERKQKGSEENLDEAREQKEK [ADD1] | 5.5 ± 0.29 | 4.91 ± 0.87
43 | IIKQLQKGVQQKRPSEAQSVILRR [DENND6A] | 3.08 ± 0.2 | 2.9 ± 0.14
44 | HEVKCQGKPLAGIYRKREEKRNAG [KMT5A] | 4.64 ± 0.55 | 5.06 ± 0.1
45 | PEASDQEEHLSPLDFLHSANFSLG [RNF180] | 4.66 ± 0.17 | 4.64 ± 0.36
46 | LVGDDAACIAYIRLTQYMDGSGMP [CAMK2D] | 2.13 ± 0.91 | 1.66 ± 0.13

Row | Sequence | protein stability index (treatment: DMSO) | protein stability index (treatment: MLN4924 1 uM, 8 h)
47 | YNLSPEADESVLWQLFGPFGAVTN [ELAVL3] | 2.55 ± 0.28 | 2.51 ± 0.091
48 | LKKEHPGARDGIRYLEAEFKKGNR [SMG5] | 4.35 ± 0.6 | 4.29 ± 0.24
49 | AASEAGRAMHLMKKREKQREQMEQ [FAM50A] | 5.05 ± 0.25 | 4.87 ± 0.17
50 | PALDSLAYEYEREGLYEQAFQLLR [TRADD] | 2.64 ± 0.15 | 2.9 ± 0.29
51 | LRDGGGLTPLELLLRQLGRDAGAT [ANKRD9] | 2.79 ± 0.34 | 2.58 ± 0.27
52 | EERVETTVTSLKTKVGGTNPNGGS [TPD52L1] | 5.11 ± 0.28 | 5.19 ± 0.21
53 | IKEVIFMSDKYHDSDEATAARLLF [DCTD] | 2.57 ± 0.27 | 2.62 ± 0.32
54 | VANRHGHTCLMISCYKGHREIARY [FEM1A] | 2.54 ± 0.5 | 2.41 ± 0.67
55 | QALGIPATECEFVGSLPVIVVGRL [LPCAT4] | 2.38 ± 0.58 | 2.29 ± 0.66
56 | DSMTSQAKPEALSSPKFREEAAFP [ELOA2] | 4.9 ± 0.24 | 4.89 ± 0.13
57 | RPSEAQSVILRRYFLELTQSFIIP [DENND6A] | 2.91 ± 0.44 | 2.67 ± 0.45
58 | SWKESSMNIIELEIPDQNIDVEAL [GMCL1] | 4.26 ± 0.23 | 4.08 ± 0.29
59 | EHVLMFAKLALYPCASLLAFASTC [TMEM175] | 3.42 ± 0.23 | 3.14 ± 0.5
60 | GGYEKASKRMTFQMPKFDLGPLLS [MYOZ1] | 2.54 ± 0.32 | 2.64 ± 0.22
61 | PANLYVRELREVRRVPPRFSIPPT [PTPRD] | 2.95 ± 0.2 | 3.05 ± 0.41
62 | QEIIKTTEQLIEAVNNGDFEAYAK [CAMK2B] | 4.27 ± 0.17 | 4.26 ± 0.15
63 | KIKVRFSFFLQIYLIMIFLGLYIN [HACD3] | 3 ± 0.73 | 2.29 ± 0.96
64 | ALGWAPAAPPPLKDDPEGDRDGCV [ZBED3] | 5.34 ± 0.17 | 5.54 ± 0.3
65 | YVQTVDFMRTDNTCVNLLLEASNY [KLHL13] | 2.6 ± 0.71 | 2.6 ± 0.66
66 | SVKKQGETVADVRTLPNASTVDNI [MLH1] | 5.12 ± 0.12 | 5.25 ± 0.14
67 | RGTHAVVGVATADAPLHSVGYTTL [SPSB1] | 2.73 ± 0.26 | 2.88 ± 0.14
68 | NRLMLAVRDMMANFHLNDLEAPHE [TCF25] | 2.5 ± 0.42 | 2.42 ± 0.24
69 | QNDNAPEILYPALPTDGSTGVELA [PCDHGA10] | 4.84 ± 0.39 | 5.2 ± 0.18

Row | Sequence | protein stability index (treatment: DMSO) | protein stability index (treatment: MLN4924 1 uM, 8 h)
70 | DIDKKHLVLLRDGRTLIGFLRSID [LSM1] | 2.3 ± 0.31 | 2.25 ± 0.18
71 | KLASHTRDTTGVSQMFPSSKARTK [FBF1] | 4.39 ± 0.16 | 4.58 ± 0.053
72 | SAWSNIQEAPLQDDSCLNNDIPHS [FAN1] | 4.98 ± 0.2 | 5.07 ± 0.067
73 | AGAGWWVGAAYASLRRRGASAAAR [TRIM14] | 2.88 ± 0.22 | 
74 | DVFSENLLADVKGARAALNEIESR [STX11] | 4.22 ± 0.22 | 4.37 ± 0.12
75 | AGRQSVSGRKNSTSKDLVTLGASS [C6orf223] | 4.4 ± 0.16 | 4.49 ± 0.13
76 | KTSLAPYVKVFEHFLENLDKSRKG [PRIM1] | 2.54 ± 0.39 | 3.12 ± 0.46
77 | LYAKMIQKLADLRSLNEEHSKQYR [VDR] | 2.15 ± 0.41 | 2.19 ± 0.22
78 | VLRHFHLLSDGSNTLSVSYKKGRM [SLC6A17] | 2.12 ± 0.39 | 2.61 ± 0.17
79 | SSCTHVTGNYRKGNAHLGYSLVTH [ADAMTSL2] | 2.92 ± 0.7 | 2.77 ± 0.42
80 | WEELLTMKVEAKSHLQWQESRLKR [ZSCAN9] | 3.65 ± 0.18 | 3.59 ± 0.37
81 | GLQRNLLVENIIDIYKQECSSRPL [TRIM63] | 2.71 ± 0.31 | 2.87 ± 0.19
82 | LAMWTTALLHQAETLQPSVWFGGR [TMEM175] | 3 ± 0.56 | 2.82 ± 0.86
83 | AIQAFLDKCSAPKIWRTPNGKTIE [IQUB] | 2.36 ± 0.48 | 2.27 ± 0.22
84 | REQKEKSPPDQPAVPHPPPSTPIK [ADD1] | 5.39 ± 0.12 | 5.53 ± 0.18
85 | MVTQILGAMESQVGGGPAGPALPN [ELAVL3] | 2.69 ± 0.098 | 3.01 ± 0.53
86 | DEEEDFFLRGPSGPRFGPRNDKIK [VAMP4] | 4.53 ± 0.26 | 4.62 ± 0.26
87 | GNIIAHASTTRLYLRKGRGETRIC [RAD51] | 3.11 ± 0.44 | 3.16 ± 0.34
88 | ENQEKTEDQYEENSHLTSVPHWIN [ETS2] | 4.97 ± 0.21 | 4.95 ± 0.22
89 | IREQIKKYRRHFLRFCHNNKKAKR [EIF5] | 2.35 ± 0.19 | 2.33 ± 0.16
